Experimental data reported in publication PMC10592267.

Biological target: poplar cellulose synthase isoform-8 (CesA8) from hybrid aspen (hybrid aspen (poplar))
Experiment: cryo-EM structure; purified CesA8 in 0.02% GDN, incubated with 20 mM MgCl2 and 5 mM UDP or UDP-Glc for 30 min on ice before grid preparation; non-uniform refinement with C3 symmetry

stoichiometry N: 3
Substance: poplar cellulose synthase isoform-8 (CesA8) from hybrid aspen (enzyme)
